In patent US20110212162A1 (SANFORD BURNHAM MEDICAL RESEARCH INSTITUTE, published 2011):

Target: T1, chemokine receptor CXCR4, expressed on transfected 293T cells (UniProt P61073 1-352, limits assumed)
T1 construct: whole, on cells; also called CXCR4 receptor
Test: phage binding to transfected 293T cells; bound phage rescued and titrated
Protocol: Briefly, plasmid (10 μg) was mixed with 900 μl of serumfree DMEM and 50 μl of FuGene and incubated for 15 min at room temperature before adding the mixture to the cells. The cells were detached using EDTA after 48 hrs post transfection and washed with PBS containing 1% BSA. Phage (5×10⁹ pfu) were incubated with the transfected cells and bound phage were rescued and titrated. For competitive binding assay, the cognate peptide (150 μg/ml) or antibody (50 μg/ml) was added during incubating of the phage with cells. Targeted proapoptotic peptide treatment of tumor-bearing mice Prostate cancer model. Orthotopic xenografted prostate tumors were established by injecting 1×10⁶ PPC1 human prostate cancer cells into the mouse prostate. Fifteen days post inoculation, the mice were intravenously injected with D(KLAKLAK)₂-[…] (SEQ ID NO:41), an equimolar mixture of D(KLAKLAK)₂ (SEQ ID NO:19) and […] (SEQ ID NO:6), or PBS. Biweekly injections of 100 μg/dose/mouse were given for three weeks. Melanoma model. Nude BALB/c mice were subcutaneously injected with 1×10⁶ C8161 human melanoma cells. Treatment started when mean tumor volumes reached about 100 mm3. Mice with size-matched tumors were randomized into three groups. […] The mice were monitored for weight loss, and tumors were dissected and weighed at the termination of the experiment. […]

T1 sequence (P61073 whole entry): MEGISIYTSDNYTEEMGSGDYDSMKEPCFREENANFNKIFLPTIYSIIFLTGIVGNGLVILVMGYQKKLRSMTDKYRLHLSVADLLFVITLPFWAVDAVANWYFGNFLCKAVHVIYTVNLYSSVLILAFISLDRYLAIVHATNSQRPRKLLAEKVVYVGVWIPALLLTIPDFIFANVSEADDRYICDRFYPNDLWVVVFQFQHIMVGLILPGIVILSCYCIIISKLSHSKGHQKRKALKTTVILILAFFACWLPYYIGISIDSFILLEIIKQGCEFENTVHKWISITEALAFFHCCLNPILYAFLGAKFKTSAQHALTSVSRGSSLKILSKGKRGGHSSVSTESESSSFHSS

CGNKRTRGC [LyP-1 phage (T7 phage displaying the peptide CGNKRTRGC, SEQ ID NO:16)]: no binding (tested: 5x10^9 pfu phage).
